Results on five molecules are retold here after patent publication US20100104557A1 (Xencor, published 2010).

Test [1] concerns the target T1, His-tagged HM1.24 antigen, residues N49-A163 of the extracellular domain (human, UniProt Q10589 49-163).
T1 construct: Expressed in 293T cells, purified by Ni-NTA; not shown: N-terminal His-tag and Factor Xa cleavage site
T1 sequence: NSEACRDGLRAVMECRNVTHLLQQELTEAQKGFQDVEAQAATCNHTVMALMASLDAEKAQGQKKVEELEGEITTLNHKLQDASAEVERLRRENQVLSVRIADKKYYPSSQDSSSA
The test is described as follows: Biacore (SPR): His-tagged HM1.24 antigen coupled directly to the chip (NHS chemistry), antibody as analyte; simultaneous (global Langmuir) fitting. The source says: (§1) FIG. 17. Binding of anti-HM1.24 antibodies to HM1.24 antigen monitored by Biacore. In this format, HM1.24 antigen was coupled directly to the chip, and antibodies at multiple concentrations were used as analyte in this format.
Background: In SPR one partner is held on a chip, and binding of the other changes the refractive index at the surface.

The target of test [2] is T1, His-tagged HM1.24 antigen, residues …. The test is described as follows: Biacore (SPR): His-tagged HM1.24 antigen coupled directly to the chip (NHS chemistry), antibody as analyte; separate kd and ka fitting.
Description: as §1

B1: HM1.24_H1L4 (antibody, V domains shown)
VH: QVQLVQSGAEVKKPGASVKVSCKASGYTFTPYWMQWVRQAPGQGLEWMGSIFPGDGDTRYSQSFQGQVTISADKSISTAYMELSRLRSDDTAVYYCARGLRRGGYYFDYWGQGTLVTVSS
VL: DIVMTQSPLSLPVTLGQPASISCKASQDVNTAVAWYLQKPGKSPKLLIYSASNRYTGVPDRITGSGSGTDFTLKISRVEAEDVGVYYCQQHYSTPFTFGSGTKLEIKR
notes: also called H1 and L4 combination; parent H1 antibody
A word on the koff: it is the first-order rate constant of dissociation. High values mean fast dissociation, low ones slow dissociation. Broadly, the kon is the second-order rate constant of association. In test [1], B1 had a koff of 3.18e-05 s⁻¹ and an on-rate constant (kon) of 834000 M⁻¹ s⁻¹. In test [2], this molecule displayed a koff of 5.53e-05 s⁻¹ and a kon of 966000 M⁻¹ s⁻¹.

B2: HM1.24_H1L2 (antibody, human IgG1, kappa, V domains shown)
VH: QVQLVQSGAEVKKPGASVKVSCKASGYTFTPYWMQWVRQAPGQGLEWMGSIFPGDGDTRYSQSFQGQVTISADKSISTAYMELSRLRSDDTAVYYCARGLRRGGYYFDYWGQGTLVTVSS
VL: DIVMTQSPSSLSASVGDRVTITCQASQDVNTAVAWYQQKPDQSPKLLIYSASNRYTGVPDRITGSGSGTDFTLTISSLQAEDVAVYYCQQHYSTPFTFGSGTKLEIKR
notes: also called H1 and L2 combination
Turning to B2, in test [1], the koff turned out to be 2.03e-05 s⁻¹ and the kon worked out at 754000 M⁻¹ s⁻¹. In addition, in test [2], the koff was determined as 4.49e-05 s⁻¹ and the kon is 782000 M⁻¹ s⁻¹.

B3: Antibody comprising the HM1.24_H1.2 heavy chain variant and the HM1.24_L4 light chain (antibody, human IgG1, kappa, V domains shown)
VH: QVQLVQSGAEVKKPGASVKVSCKASGYTFTPYWMQWVRQAPGQGLEWMGSIFPGSGDTRYSQSFQGQVTISADKSISTAYMELSRLRSDDTAVYYCARGLRRGGYYFDYWGQGTLVTVSS
VL: DIVMTQSPLSLPVTLGQPASISCKASQDVNTAVAWYLQKPGKSPKLLIYSASNRYTGVPDRITGSGSGTDFTLKISRVEAEDVGVYYCQQHYSTPFTFGSGTKLEIKR
With B3, in test [1], the off-rate (koff) turned out to be 7.99e-05 s⁻¹ and the association rate constant (kon) came to 1.29e+06 M⁻¹ s⁻¹. Also, in test [2], the koff stood at 9.54e-05 s⁻¹ and the kon turned out to be 1.34e+06 M⁻¹ s⁻¹.

B4: HM1.24_H0L0_IgG1_WT (antibody)
heavy: not shown
light: DIVMTQSHKFMSTSVGDRVSITCKASQDVNTAVAWYQQKPGQSPKLLIYSASNRYTGVPDRITGSGSGTDFTFTISSVQAEDLALYYCQQHYSTPFTFGSGTKLEIKRTVAAPSVFIFPPSDEQLKSGTASVVCLLNNFYPREAKVQWKVDNALQSGNSQESVTEQDSKDSTYSLSSTLTLSKADYEKHKVYACEVTHQGLSSPVTKSFNRGEC
notes: also called WT anti-HM1.24 antibody; parent HM1.24_H0L0_IgG1 WT antibody
On to B4, for which, in test [1], the off-rate constant (koff) was found to be 3.57e-05 s⁻¹ and the association rate constant (kon) came to 699000 M⁻¹ s⁻¹. For the same molecule, in test [2], the dissociation rate constant (koff) turned out to be 4.4e-05 s⁻¹ and the kon stood at 820000 M⁻¹ s⁻¹.

B5: HM1.24_H0L0 IgG1 S239D/I332E (antibody)
heavy: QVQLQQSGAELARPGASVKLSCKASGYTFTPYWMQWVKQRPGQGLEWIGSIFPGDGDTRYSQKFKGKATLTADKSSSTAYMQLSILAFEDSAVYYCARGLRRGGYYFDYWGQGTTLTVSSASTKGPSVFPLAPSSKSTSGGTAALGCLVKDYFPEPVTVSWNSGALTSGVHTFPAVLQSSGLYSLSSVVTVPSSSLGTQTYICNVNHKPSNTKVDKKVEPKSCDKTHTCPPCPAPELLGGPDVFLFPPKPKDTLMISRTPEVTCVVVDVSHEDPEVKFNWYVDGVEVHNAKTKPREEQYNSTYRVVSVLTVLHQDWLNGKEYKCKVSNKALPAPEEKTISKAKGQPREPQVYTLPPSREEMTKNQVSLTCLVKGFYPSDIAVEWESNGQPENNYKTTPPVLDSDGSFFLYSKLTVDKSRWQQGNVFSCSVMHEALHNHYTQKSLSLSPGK
light: DIVMTQSHKFMSTSVGDRVSITCKASQDVNTAVAWYQQKPGQSPKLLIYSASNRYTGVPDRITGSGSGTDFTFTISSVQAEDLALYYCQQHYSTPFTFGSGTKLEIKRTVAAPSVFIFPPSDEQLKSGTASVVCLLNNFYPREAKVQWKVDNALQSGNSQESVTEQDSKDSTYSLSSTLTLSKADYEKHKVYACEVTHQGLSSPVTKSFNRGEC
As for B5, in test [1], the koff was found to be 4.03e-05 s⁻¹ and the association rate constant (kon) was determined as 772000 M⁻¹ s⁻¹. In test [2], the off-rate constant (koff) turned out to be 5.5e-05 s⁻¹ and the on-rate (kon) was determined as 863000 M⁻¹ s⁻¹.
